For two substances, stoichiometry N results are on record in paper PMC3919171.

In experiment [1] the target is collagen VI monomer with the murine collagen VI α3 chain (N9-C5) carrying the R1061Q mutation (mouse | human (endogenous in SaOS-2)). The experiment can be described thus: non-reducing agarose/polyacrylamide composite gel electrophoresis with immunoblot; culture medium (4-14 days) and cell extracts of transfected SaOS-2 cells, SDS loading buffer with 2 M urea, non-reducing, 0.5% agarose/2.4% polyacrylamide; detected with an antibody against the α3 C terminus; sizes from purified collagen VI as a standard; monomers to tetramers. (In general: Immunoblotting shows a protein as a band on a membrane.)

In experiment [2] the target is collagen VI monomer with the wild-type murine collagen VI α3 chain (N9-C5) (mouse | human (endogenous in SaOS-2)) (UniProt P12109). Described as above.

“collagen VI monomer with the murine collagen VI α3 chain (N9-C5) carrying the R1061Q mutation (from UniProt P12109 20-1028; P12110 21-1019) (complex)” had a stoichiometry N in experiment [1] of 4.

In turn, “collagen VI monomer with the wild-type murine collagen VI α3 chain (N9-C5) (from UniProt P12109 20-1028; P12110 21-1019) (complex)” returned a stoichiometry N in experiment [2] of 4.

A word on the stoichiometry N: it is a count of units in the complex or per binding partner.
